In paper PMC2779590:

Molecular target: stable 100 kDa N-terminal fragment of CagA (Helicobacter pylori (strain not stated)) (UniProt P55980)
Assay: SPR

Chain of stable 100 kDa N-terminal fragment of CagA (Helicobacter pylori (strain not stated)) (P55980 1-885 limits assumed): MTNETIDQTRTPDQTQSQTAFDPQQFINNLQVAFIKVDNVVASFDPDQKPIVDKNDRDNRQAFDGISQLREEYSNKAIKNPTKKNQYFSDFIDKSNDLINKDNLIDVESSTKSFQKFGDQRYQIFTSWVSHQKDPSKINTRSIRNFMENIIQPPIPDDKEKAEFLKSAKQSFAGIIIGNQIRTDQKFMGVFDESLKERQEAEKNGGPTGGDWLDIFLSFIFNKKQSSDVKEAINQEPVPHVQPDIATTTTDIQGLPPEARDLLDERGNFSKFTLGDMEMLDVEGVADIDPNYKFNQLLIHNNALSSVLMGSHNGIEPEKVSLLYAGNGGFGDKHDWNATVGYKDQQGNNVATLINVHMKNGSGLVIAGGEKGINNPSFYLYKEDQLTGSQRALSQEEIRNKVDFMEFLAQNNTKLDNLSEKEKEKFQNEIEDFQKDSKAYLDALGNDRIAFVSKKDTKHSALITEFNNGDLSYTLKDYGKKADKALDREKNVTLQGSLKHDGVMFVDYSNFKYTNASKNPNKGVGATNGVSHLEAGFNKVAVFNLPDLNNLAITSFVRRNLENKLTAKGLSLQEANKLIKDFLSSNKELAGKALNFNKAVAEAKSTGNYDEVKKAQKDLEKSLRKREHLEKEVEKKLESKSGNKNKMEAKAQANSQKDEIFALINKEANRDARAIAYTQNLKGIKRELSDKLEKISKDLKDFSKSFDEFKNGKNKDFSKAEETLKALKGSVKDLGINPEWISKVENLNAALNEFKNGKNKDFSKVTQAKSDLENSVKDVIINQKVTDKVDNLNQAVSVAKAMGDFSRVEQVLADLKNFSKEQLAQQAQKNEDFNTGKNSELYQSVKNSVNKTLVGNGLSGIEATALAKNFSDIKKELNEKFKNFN

Substance	Kd [nM]
purified human αVβ3 integrin (from placenta) (from UniProt P05106 27-788) (complex)	33.4
purified human α5β1 integrin (from placenta) (from UniProt P05556 21-798) (complex)	0.153
